Results on 17 molecules are retold here after PMC4705477, “Biochemical Characterization of Nonamer Binding Domain of RAG1 Reveals its Thymine Preference with Respect to Length and Position”.

To fix the notation:
T1: NBD (nonamer binding domain of RAG1) (mouse, UniProt P15919 384-461)
T1 sequence: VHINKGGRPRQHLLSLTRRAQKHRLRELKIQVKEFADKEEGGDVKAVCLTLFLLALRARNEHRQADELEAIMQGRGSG

B1: poly T 75 (MS6) (ssDNA)
DNA: TTTTTTTTTTTTTTTTTTTTTTTTTTTTTTTTTTTTTTTTTTTTTTTTTTTTTTTTTTTTTTTTTTTTTTTTTT
B2: random dsDNA MN37/MN38 (XV or XVI) (dsDNA)
DNA 1: CCTCTCCCCCTCCCCTCCCCTCCCTCGCGC
DNA 2: GCGCGAGGGAGGGGAGGGGAGGGGGAGAGG
B3: random dsDNA MN45/MN46 (XV or XVI) (dsDNA)
DNA 1: AGAAGGGGGAGGGGAGGGAGAGAGGGGGCGCCG
DNA 2: CGGCGCCCCCTCTCTCCCTCCCCTCCCCCTTCT
B4: A/T 16 bp (MS102/DR39) (dsDNA)
DNA 1: TTTTTTTTTTTTTTTT
DNA 2: AAAAAAAAAAAAAAAA
B5: A/T 22 bp (MS100/DR40) (dsDNA)
DNA 1: TTTTTTTTTTTTTTTTTTTTTT
DNA 2: AAAAAAAAAAAAAAAAAAAAAA
B6: A/T 10 bp (MS103/DR38) (dsDNA)
DNA 1: TTTTTTTTTT
DNA 2: AAAAAAAAAA
B7: A/T 28 bp (MS101/DR41) (dsDNA)
DNA 1: TTTTTTTTTTTTTTTTTTTTTTTTTTTT
DNA 2: AAAAAAAAAAAAAAAAAAAAAAAAAAAA

The first series concerns the target T1, NBD (nonamer binding domain of RAG1). Description: EMSA; 5 mM Ca2+; NBD EMSA: 10 mM Tris-HCl pH 7.5, 33 mM KCl, 5 mM CaCl2, 2 mM DTT, 0.1 mg/ml BSA, 6% glycerol, 15 min 30 C; cRAG EMSA: 22.5 mM MOPS-KOH pH 7.0, 20% DMSO, 2.2 mM. Conditions: protein: recombinant; tags: N-terminal His6 (pET28a); label: 5' 32P.
GAGTCTGATCTTACCTCTTAACTTCGCTACTTTTT (ssDNA) [XXVII, 5 T at 3' end (MS12)]: the binding result is recorded as “binds”.

Regarding GAGTCTGATCTTACCTCTTAACTTCTTTTTTTTTT (ssDNA) [XXVIII, 10 T at 3' end (MS14)], the binding result is listed as “binds”.

On to CTGTTAAGTTACTCGAAAAAAGCTCGCCCTCAGGTC (ssDNA) [XXXIII, ssDNA lacking T stretch], for which the binding result was “no binding”.

In the case of B1, the binding result is “binds”.

Take TTTTTTTTTTTTTTTTTTTTTT (ssDNA) [poly T 22 (MS100)]: the binding result is “no binding”.

Take TTTTTTTTTTTTTTTTTTTTTTTTTTTT (ssDNA) [poly T 28 (MS101)]: the binding result is given as “binds”.

With TTTTTTTTTT (ssDNA) [poly T 10 (MS103)], the binding result is on record as “no binding”.

In the case of GAGTCTGATCTTACCTCTTATTTTTTTTTTTTTTT (ssDNA) [XXIX, 15 T at 3' end (MS16)], the binding result was “binds”.

Turning to GAGTCTGATCTTACCTTTTTTTTTTTTTTTTTTTT (ssDNA) [XXX, 20 T at 3' end (MS18)], the binding result was “binds”.

With TTTTTTTTTTTTTTTT (ssDNA) [poly T 16 (MS102)], the binding result is listed as “no binding”.

On to TTTTTTTTTTGAGTCGGATCTTACGTCGTAACTTCGCTAC (ssDNA) [XXXI, 10 T at 5' end (MS22)], for which the binding result is recorded as “binds”.

Still in this series, the particulars now being: protein: recombinant; tags: N-terminal His6 (pET28a); label: 5' 32P on MN37; blunt.
For B2, the binding result is “no binding”.

The series is the same for the next values; noted with them: protein: recombinant; tags: N-terminal His6 (pET28a); label: 5' 32P on MN45; blunt.
B3: the binding result is on record as “no binding”.

Still in this series, the particulars now being: protein: recombinant; tags: N-terminal His6 (pET28a); label: 5' 32P; blunt.
For B4, the binding result is “no binding”.

Take B5: the binding result is “no binding”.

For B6, the binding result is listed as “no binding”.

As to B7, the binding result is listed as “binds”.
